{
  "source": "patent US20250382346A1",
  "about": "“NEURONAL PROMOTERS AND USES THEREOF” (priority 2023, published 2025)",
  "key": {"[1]": {"test_system": "striatonigral projection neurons (D1 MSNs)", "assay": "Retrograde labeling of striatal MSNs after AAV injection into the SNr, EYFP+ cell counting", "assay_type": "in vivo, mice", "experimental": "To improve efficiency, multiple rounds of mutations of AAV capsids were performed on a series of different serotypes. Mutations were introduced at three sites in the AAV8 capsid protein to make AAV8R, including N385D, insertion of […] (SEQ ID NO: 31) at position 588, and TS711-7121N. Two additional mutations of V183E and N41 IS were incorporated into the AAV8R12 capsid protein (FIG. 1A). The labeling pattern of the AAV8R12 capsid and G88 promoter combination was determined.\nwas inserted at the N587-R588 position; two other point mutations of the AAV2 Cap protein were made to develop rAAV2-retro. Similar mutations were then placed at equivalent positions for four other AAV serotypes (FIGS. 1A-1C and 25, TABLE 1), AAV1/5/6/8 (FIG. 1A). […] When administered into the SNr, 4.86±0.22 times EYFP positive MSNs in mice infected by AAV8R-hSyn-EYFP were observed as compared to those infected by rAAV2-retro-hSyn-EYFP (FIG. 2A-2C).\nBaseline infectivity of rAAV2-retro was approximately 0.2±0.03×10^4 cells per striatal hemisphere (using a hSyn promoter) (TABLE 2). […] Compared to the current standard retrograde AAV, rAAV2-retro, AAV8R12 labeled 7.72±0.78-times more MSNs after nigral delivery (FIG. 2B-2C, TABLE 1). […] The AAV8R12 was generated using the AAV8R plasmid as a template.\nMice were anesthetized with sodium pentobarbital (Nembutal; 80 mg/kg, i.p.), and then placed into a stereotaxic device (KOPF). Eye cream was applied on both corneas to avoid dehydration. The skull above the targeted areas was thinned with a dental drill and carefully removed. Injections were conducted with a 10 μL syringe connected to a 33-Gauge needle (Neuros; Hamilton), using a microsyringe pump (Legato 130, KD Scientific). A total volume of 200 nL virus was injected into the SNr at a speed of 20 nL/min. The coordinates for the SNr were 3.4 mm posterior, 1.3 mm lateral, 4.8 mm ventral to the bregma.\nImages were acquired using a confocal microscope (Carl Zeiss, LSM880) and an Axiolmager. Z1 microscope with apotome (Carl Zeiss). Brain structures were identified microscopically and in digital photos using a mouse brain atlas. To analyze the number of EYFP+ cells in the striatum, slices from rostral to caudal striatum were used. Every sixth section was analyzed, and numbers of EYFP+ cells were multiplied by six to acquire the approximate total number and mean number of cells per animal. Images were processed using ImageJ (NIH, USA), and final quantifications were independently performed manually by two blinded experimenters."}, "[2]": {"test_system": "MSNs in nucleus accumbens", "assay": "Retrograde labeling of accumbal MSNs after delivery into ventral pallidum or lateral hypothalamus", "assay_type": "in vivo, mice", "settings": "stereotaxic delivery into ventral pallidum or lateral hypothalamus"}},
  "data": [
    {"molecule": "AAV8R12: AAV8R capsid mutant V183E + N411S; Cap SEQ ID NO: 59 (protein) MAADGYLPDWLEDNLSEGIREWWALKPGAPKPKANQQKQDDGRGLVLPGYKYLGPFNGLDKGEPVNAADAAALEHDKAYDQQLQAGDNPYLRYNHADAEFQERLQEDTSFGGNLGRAVFQAKKRVLEPLGLVEEGAKTAPGKKRPVEPSPQRSPDSSTGIGKKGQQPARKRLNFGQTGDSESEPDPQPLGEPPAAPSGVGPNTMAAGGGAPMADNNEGADGVGSSSGNWHCDSTWLGDRVITTSTRTWALPTYNNHLYKQISNGTSGGATNDNTYFGYSTPWGYFDFNRFHCHFSPRDWQRLINNNWGFRPKRLSFKLFNIQVKEVTQNEGTKTIANNLTSTIQVFTDSEYQLPYVLGSAHQGCLPPFPADVFMIPQYGYLTLNDGSQAVGRSSFYCLEYFPSQMLRTGNSFQFTYTFEDVPFHSSYAHSQSLDRLMNPLIDQYLYYLSRTQTTGGTANTQTLGFSQGGPNTMANQAKNWLPGPCYRQQRVSTTTGQNNNSNFAWTAGTKYHLNGRNSLANPGIAMATHKDDEERFFPSNGILIFGKQNAARDNADYSDVMLTSEEEIKTTNPVATEEYGIVADNLQRGNLADQDYTKTARQAATADVNSQGALPGMVWQNRDVYLQGPIWAKIPHTDGNFHPSPLMGGFGLKHPPPQILIKNTPVPADPPTTFNQSKLNSFITQYSTGQVSVEIEWELQKENSKRWNPEIQYTSNYYKSINVDFAVNTEGVYSEPRPIGTRYLTRNL", "values": [
      {"measurement": "Labeling Efficiency in Striatonigral Pathway", "setting": "[1]; AAV8R capsid mutants, numbers of labeled neurons per animal", "value": "+++ (10k-25k)"},
      {"measurement": "EYFP positive / labeled MSNs compared to rAAV2-retro", "setting": "[1]; after nigral delivery, hSyn-EYFP", "value": "7.72±0.78", "unit": "times"},
      {"measurement": "labeled striatonigral projection neurons (FIG. 2C), mean±SEM", "setting": "[1]; capsid comparison, injection into SNr of wild type mice, n=3 mice per group", "value": "16026±1654"},
      {"measurement": "Mean (AAVs with capsid and promoter)", "setting": "[1]; labeled cells after nigral injection in mice, b188 refers to it as cells per striatal hemisphere, SD and SEM in own columns", "value": 16026},
      {"measurement": "labeling of MSNs in nucleus accumbens", "setting": "[2]", "value": "robust labeling of MSNs"}
    ]}
  ]
}
